Our source for the AmyQ secretion efficiency values is the supplement of paper PMC9942255.

Several values for one entry are separate records, joined by “and”; a condition that tells them apart may be missing. Equal entries are not always repeated.

This data set concerns Bacillus subtilis DB104 (SP-AmyQ fusion secretion). As to the kind of experiment: AmyQ secretion efficiency, weighted average sort bin (1 = best secretion, 10 = worst) (bin number (weighted average, 1-10)); higher = lower secretion efficiency. The procedure, abridged:
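The secretion score was taken as the read-frequency-weighted mean bin number, normalised to beads per bin, with low-abundance sequences excluded. Bins came from large-particle flow cytometry sorting of occupied alginate beads (~65 nL, about 0.3 cells each, with fluorescein-starch) into 10 equally populated groups by green/red fluorescence ratio after about 13 h at room temperature and nile red staining. The cells were a B. subtilis DB104 library with mature AmyQ fused to designed signal peptides, integrated at amyE, and each bin's amplicons were Illumina-sequenced.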

As to MLMLCLWFTVFSLFLVLLPGKALGAVD, the AmyQ secretion efficiency worked out at 5.08.
MKVLLSALLLLLFAFEPSASVKKL gave an AmyQ secretion efficiency of 6.34.
Then MLGSTSFVSSLFISSAVLLSILLPSGQAHAQSA, with 2.1.
For the sequence MKKGIIRFLLVSFVLFFALSTGITGFQAAPA, the AmyQ secretion efficiency is 5.1.
Sequence MKNMSCKLVVSVTLFFSFLTAHAQNS yielded an AmyQ secretion efficiency of 6.96.
Sequence MKSKGSIMACLILFSFTITTFINTETGSISAFSN displayed an AmyQ secretion efficiency of 5.66.
MKKKLAAGLTASAIVGTTLVVTPAEAATD came in with an AmyQ secretion efficiency of 2.88.
MFNRLFRVCFLAALIMAFTLPNSFYAQKP showed an AmyQ secretion efficiency of 6.02.
Sequence MRSKKLWISLLFALTLIFTMAFSNMSAQRAGK registered an AmyQ secretion efficiency of 6.17.
Take MLKKIALTLCPAIVGSLLAPASAHVS: the AmyQ secretion efficiency stood at 4.32.
Consider MRFTKTVGFLSVLGLAAVFPLTAQAEKA, for which the AmyQ secretion efficiency was 2.59.
Sequence MKRIRIPMTLALGAALTIAPLSFLSAEEN came in with an AmyQ secretion efficiency of 4.62.
Regarding MKVLLSALLLLLFAFGPSASGKKL, the AmyQ secretion efficiency was 5.45.
The sequence MKTPKGMLLSTAAGLLLSLTATSVSAHYV came in with an AmyQ secretion efficiency of 5.33.
In turn, MKSKWMSGLLLVAVGFSFTQVMLHAGET registered an AmyQ secretion efficiency of 6.15.
With MRKKLKWLSFLLGFIILLFLFKYQGSNNDS, the AmyQ secretion efficiency was determined as 5.93.
The result for MKLAKRVSALTPSTTLAITAKHKEL reads 6.77; that for MRFTKVVGFLSVLGLAAVFPLTAQAEED, 1.95.
For the sequence MRNLTKTSLLLAGLCTAAQMVFVTHSTASAEES, the AmyQ secretion efficiency worked out at 3.1.
Then MKKWIYVRKKRSIAGIGGFSVHAASS, with 7.24.
Take MLKKIALTLCPAIVAPASAHVS: the AmyQ secretion efficiency came out at 6.21.
In turn, MKLRKVLTGSVLSLGLLVSASPNFATSP returned an AmyQ secretion efficiency of 5.36.
In the case of MKSKGSIMACLILFSFTITTFINTETISKFSN, the AmyQ secretion efficiency amounted to 7.47.
As to MRPVFPLILSAVLFLSCFFGARQTEWSASKR, the AmyQ secretion efficiency came out at 7.27.
The result for MKKRFFGPIILAFILFRRRAIAIPS reads 7.49; that for MKKRFSLIMMTGLLFGLTSPAFARKK, 7.01; that for MKKKLAAGLTASAIVGTTLVVTPSEAATI, 3.77.
Sequence MRSYIKVLTMCFLGLILFVPTALGDNS yielded an AmyQ secretion efficiency of 2.8.
Then MKKELLASLVLCLSLKRRKRTNRVFAATT, with 7.57.
The result for MKIRKILLSSALSFGMLISAVPALARKR reads 5.61; that for MKNMSCKGVVSVTLFFSFLTIGPLAHAQNS, 1.49; that for MLKKIALTLCPAIVGSLLFFTAPASQHVS, 5.33.
As for MKKLLAAGIIGLLTVSIASPSFAADD, the AmyQ secretion efficiency was 2.83.
The sequence MKRKKLCLWFTVFSLFLVLLPGKALGAVD registered an AmyQ secretion efficiency of 4.65.
As to MKKTSGTKYKCQSLILSVLAAPPSGAKAESV, the AmyQ secretion efficiency is 7.18.
MRGKSAVLLSLIMLIAGFLIISFSFQM registered an AmyQ secretion efficiency of 8.29.
The sequence MRPVFPLILSAVLFLSCFFGARQTERSASKR returned an AmyQ secretion efficiency of 6.76.
For the sequence MKNGGCKLVVSVTLFFSFLTIGPLAHAQNS, the AmyQ secretion efficiency came to 3.26.
Turning to MRKNRILALFVLSLGLLSFMVTPVSRASK, the AmyQ secretion efficiency turned out to be 8.98.
MKKTIMSFVAVAALSTTAFGAHCSAKEI showed an AmyQ secretion efficiency of 2.42.
Then MLTKRLLTIYIMLLGLIFLVALAWFPGAAQAEEK, with 4.8; and MRRKKKKVVSALSISALALSVSGVASAHEI, with 3.9.
As to MKSCKQLIVCSLAAILLLIPSVSFAAPR, the AmyQ secretion efficiency was 1.96.
The sequence MKKAFILSAAAAVGLFTFGGVQQFSAKEL yielded an AmyQ secretion efficiency of 5.1.
On to MKSKWMSGLLLVAVGFSFITQVMVHAGET, for which the AmyQ secretion efficiency came to 6.13.
As to MKKLVLCVSILAVILSGVALTDED, the AmyQ secretion efficiency is 6.4.
MKVLLSALLLLLFAFEPSASGASL: the AmyQ secretion efficiency was 2.94.
Regarding MFNRLFRRCYTSTLIMAFTLPNSVYAQKP, the AmyQ secretion efficiency came to 5.72.
With MKKWMITIAMTMLILAGIALFVFISPLKSHKT, the AmyQ secretion efficiency was found to be 1.1.
MGLGKKLSVAVAASFMSLSISLPGRQAAEG returned an AmyQ secretion efficiency of 3.87.
MFKKHTISLLIIFLLALTSAVLAKPIEAHTV yielded an AmyQ secretion efficiency of 2.73.
Sequence MRFTKVVGFLSVLGVFPLTAQAEKA yielded an AmyQ secretion efficiency of 5.6.
Take MKTKTLFIFSAILTLSIFAPNECFAQTA: the AmyQ secretion efficiency amounted to 2.92.
Turning to MYKKFVPTYTKYFLFFVSFEMMENPHALDY, the AmyQ secretion efficiency came out at 6.52.
On to MKVCQKSIVRFLVSLIIGTFVIRKKFMANAQSD, for which the AmyQ secretion efficiency is 6.59.
Take MLKKVRKRRKKLVGSTLGAFSFSSDASAKHV: the AmyQ secretion efficiency is 6.7.
MRNLTKTSLLLAGLCTAAQMVFVTHTFTFVGASAEES gave an AmyQ secretion efficiency of 7.25.
MKLWMRKTLVVLFTIVTFGLVSPPAALMTDKP showed an AmyQ secretion efficiency of 2.85.
On to MLRITINIITMFIAAAVISLTGTAEAAEK, for which the AmyQ secretion efficiency was 3.59.
The sequence MTKKAWFLPLVCVLLISGWLAPAASASNQTT yielded an AmyQ secretion efficiency of 2.2.
Take MTMLRKIIGWILLLCIIPLFAFTVIASRKEV: the AmyQ secretion efficiency stood at 6.1.
The result for MKKVLMAFIICLSLILSVLAAPPSGPKAESV reads 3.78.
MKKVLMAFIICLSLILDVLAAPPSGAKAESV: the AmyQ secretion efficiency is 1.95.
The result for MKKTGIRFLLVSFVLFFALSTGITGVQAAPA reads 1.8.
The sequence MKSKWMSGLLLVAVGFSFTSVMVHAGET came in with an AmyQ secretion efficiency of 7.31.
MKLAKRVSALTPSTTLAITLKAKEL registered an AmyQ secretion efficiency of 8.05.
As for MYSAIIIAIIAAVIVIAALITFNVRNASPG, the AmyQ secretion efficiency worked out at 7.59.
Consider MKKVLMAFIICLSLILSVLAAPPSGTKAESV, for which the AmyQ secretion efficiency came out at 2.94.
Turning to MKRKLLSSLAISALSLGSAPTASFAAES, the AmyQ secretion efficiency came out at 3.3.
On to MKKTIMSFVAVAALSTTAFGAHASAATK, for which the AmyQ secretion efficiency worked out at 3.57.
The sequence MKKRLIAPMLLSAASLAFFAMSGSKQAAAY returned an AmyQ secretion efficiency of 3.82.
Then MAIIIAIIAANVRNASPG, with 7.68.
Consider MKSKGSIMACLILFSFTITRKKRKKTISAFSN, for which the AmyQ secretion efficiency is 7.38.
MPVLLSALLLLLFAFEPSASGKKL: the AmyQ secretion efficiency worked out at 6.19.
With MRRSLALCGLALTLAPCAQAAEP, the AmyQ secretion efficiency worked out at 2.27.
In turn, MRPVFPLILSAVLFLSCFFGARQTEASCSKR came in with an AmyQ secretion efficiency of 3.44.
On to MRSYIKVLTMCFLGLILFVVIATVSAIPTALADNS, for which the AmyQ secretion efficiency was found to be 2.02.
Then MRKKRLLAGALTATVLFGTCAVDVPGIISPKTAEAASQ, with 1.23.
The result for MKKQIITATTAVVLGSTLFAGARSAQSI reads 3.67; that for MKKARRRKAAAAVGLFTFGGVQQASAKEL, 6.73.
Consider MIAYFGKCLLLVTIMFLGVLFGMQQANHG, for which the AmyQ secretion efficiency was 6.54 and 6.99 and 8.58.
Sequence MRKNRILALFVLSLGLLKRKRKKVSAASK came in with an AmyQ secretion efficiency of 6.69.
